These results are taken from US20220119534A1 (DRAGONFLY THERAPEUTICS, published 2022).

Where “and” joins values, the source holds several entries; their conditions need not be identical. Identical values can stand only once.

The target in experiment [1] is T1, Human CLEC12A-His (human, UniProt Q5QGZ9 65-265).
T1 sequence: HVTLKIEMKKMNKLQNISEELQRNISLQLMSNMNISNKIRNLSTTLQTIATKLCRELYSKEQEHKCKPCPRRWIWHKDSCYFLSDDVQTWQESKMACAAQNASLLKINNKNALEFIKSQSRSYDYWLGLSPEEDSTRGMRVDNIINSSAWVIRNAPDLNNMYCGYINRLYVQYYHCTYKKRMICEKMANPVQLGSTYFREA
In words: cell-based or functional assay.

In experiment [2] the target is T2, Human CD16a V158 (FcγRIIIa V158) (human, UniProt P08637 17-208, biotinylated (site not stated)).
T2 construct: V158 is the allele name in mature numbering; also called hCD16aV; hCD16a V158
As to the kind of experiment: SPR; biotinylated CD16a V158 captured on SA chip, TriNKET as analyte; 1:1 kinetic fit; after low pH hold, n=3.

In experiment [3] the target is T3, mFc-hNKG2D (human, UniProt P26718 73-216).
T3 construct: extracellular domain; Made in house (Dragonfly Tx); the order of tag and ECD follows the name mFc-hNKG2D; also called mFc-tagged human NKG2D; not shown: mouse Fc tag
T3 sequence (looked up): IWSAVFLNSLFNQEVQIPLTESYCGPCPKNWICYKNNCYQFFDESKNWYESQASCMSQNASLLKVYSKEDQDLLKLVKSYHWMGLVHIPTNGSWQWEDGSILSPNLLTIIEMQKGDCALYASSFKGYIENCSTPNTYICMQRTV
As to the kind of experiment: SPR Biacore 8K 37 C; mFc-hNKG2D captured on anti-mFc chip, TriNKET as analyte; steady state fit; pH 5.0 control. (In general: In SPR one partner is held on a chip, and binding of the other changes the refractive index at the surface.)

The target of another experiment is T4, Human CLEC12A-K244Q-His (human, UniProt Q5QGZ9 65-265).
T4 construct: Polymorphic variant; also called hCLEC12A (Q244); not shown: His tag
T4 chain: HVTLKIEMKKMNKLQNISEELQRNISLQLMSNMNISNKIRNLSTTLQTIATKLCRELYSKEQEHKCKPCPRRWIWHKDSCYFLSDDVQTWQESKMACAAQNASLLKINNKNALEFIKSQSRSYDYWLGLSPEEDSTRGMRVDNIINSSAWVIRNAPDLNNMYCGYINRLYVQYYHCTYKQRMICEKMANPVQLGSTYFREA
In words: SPR, hCLEC12A (Q244) variant.

The target in experiment [4] is T5, Human CLEC12A-His (human, UniProt Q5QGZ9 65-265).
T5 construct: Recombinant soluble protein made in house; also called hCLEC12A-His; hCLEC12A; not shown: His tag
T5 sequence: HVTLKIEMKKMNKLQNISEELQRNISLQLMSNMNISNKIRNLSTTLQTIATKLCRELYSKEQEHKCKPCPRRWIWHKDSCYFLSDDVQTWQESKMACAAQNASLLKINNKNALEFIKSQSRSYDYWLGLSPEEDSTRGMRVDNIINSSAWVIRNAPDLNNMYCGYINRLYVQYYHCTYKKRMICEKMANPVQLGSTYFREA
In words: SPR; control sample (pH 5 stress study).

Experiment [5] has as its target T6, mFc-hNKG2D (human, UniProt P26718 73-216).
T6 construct: extracellular domain; Recombinant mFc-tagged NKG2D dimer, made in house; also called human NKG2D; not shown: mouse Fc tag
T6 sequence (looked up): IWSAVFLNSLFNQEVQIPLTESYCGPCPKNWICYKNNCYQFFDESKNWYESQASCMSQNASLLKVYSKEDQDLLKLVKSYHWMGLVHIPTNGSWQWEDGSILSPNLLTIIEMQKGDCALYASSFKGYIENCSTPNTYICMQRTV
As to the kind of experiment: SPR; control sample (pH 5 stress study).

For a further experiment, the target named is T7, Human CD16a V158 (human, UniProt P08637 17-208, biotinylated).
T7 construct: Bought recombinant receptor; also called hCD16a (V158); hFcγRIIIa V158
In words: SPR; control sample (pH 5 stress study).

Experiment [6] deals with T6, mFc-hNKG2D. As to the kind of experiment: SPR, 37 C, mFc-hNKG2D captured, 1:1 kinetic fit; average.
Excerpt: NKG2D is a dimer in nature, therefore recombinant mFc-tagged NKG2D dimer was used for this experiment. […] Two different fits were utilized to obtain the equilibrium affinity data: steady state affinity fit and kinetic fit.
The next experiment addresses T8, recombinant human CD64 (human, UniProt P12314 16-288, biotinylated).
T8 construct: also called hFcγRI; hCD64
In words: SPR 25C, kinetic fit.

The next experiment addresses T9, recombinant human CD16b (human, UniProt O75015 17-200, limits assumed, biotinylated).
T9 construct: also called FcγRIIIb
In words: SPR 25C, steady state.

T9 sequence (O75015 17-200 limits assumed): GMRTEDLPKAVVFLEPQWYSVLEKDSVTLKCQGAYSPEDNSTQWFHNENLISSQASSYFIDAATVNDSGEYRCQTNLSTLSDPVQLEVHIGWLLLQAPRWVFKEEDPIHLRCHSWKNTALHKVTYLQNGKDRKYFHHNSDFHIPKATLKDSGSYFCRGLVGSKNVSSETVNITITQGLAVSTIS
T2 sequence (P08637 17-208 F176V limits assumed): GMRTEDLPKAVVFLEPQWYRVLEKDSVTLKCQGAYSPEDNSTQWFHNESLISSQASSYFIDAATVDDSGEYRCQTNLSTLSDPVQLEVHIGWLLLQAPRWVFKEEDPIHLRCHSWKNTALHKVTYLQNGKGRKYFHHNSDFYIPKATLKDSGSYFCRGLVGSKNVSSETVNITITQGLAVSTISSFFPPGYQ
T7 sequence (P08637 17-208 F176V limits assumed): as above
T8 sequence (P12314 16-288 limits assumed): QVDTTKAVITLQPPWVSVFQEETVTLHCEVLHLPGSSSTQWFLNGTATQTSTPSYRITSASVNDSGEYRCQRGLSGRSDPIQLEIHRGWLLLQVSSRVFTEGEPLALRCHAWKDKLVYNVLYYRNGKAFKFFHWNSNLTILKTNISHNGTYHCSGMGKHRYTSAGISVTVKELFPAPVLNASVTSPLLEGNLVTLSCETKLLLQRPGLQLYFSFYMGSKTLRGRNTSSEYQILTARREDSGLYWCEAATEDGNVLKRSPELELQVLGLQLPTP
Description for recombinant human CD64: Human and cyno CD64, high and low affinity alleles of CD16a (V158 and F158, respectively), two alleles of CD32a (H131 and R131), CD16b, CD32b and cynomolgus CD16 were captured via biotin on a primed Biacore chip, prepared according to the manufacturer's instructions.
For no-signal reference, a 0 nM blank cycle at the start of each concentration series and receptor free chip surface were used. Each experimental cycle included association, dissociation and regeneration steps. All steps were executed at a flow rate of 30 μL/min and at 25° C.

B1: F3'-1602 TriNKET (bispecific antibody, human IgG1, kappa)
chain: QLQLQESGPGLVKPSETLSLTCTVSGFSLTNYGLHWIRQPPGKCLEWIGVIWSGGKTDYNPSLKSRVTISKDTSKNQFSLKLSSVQAADTAVYYCAKYDYDDSLDYWGQGTLVTVSSGGGGSGGGGSGGGGSGGGGSDIQMTQSPSSLSASVGDRVTITCHASQNINFWLSWYQQKPGKAPKLLIYEASNLHTGVPSRFSGSGSGTRFTLTISSLQPEDIATYYCQQSHSYPLTFGCGTKLEIKGSDKTHTCPPCPAPELLGGPSVFLFPPKPKDTLMISRTPEVTCVVVDVSHEDPEVKFNWYVDGVEVHNAKTKPREEQYNSTYRVVSVLTVLHQDWLNGKEYKCKVSNKALPAPIEKTISKAKGQPREPRVYTLPPCRDELTKNQVSLTCLVKGFYPSDIAVEWESNGQPENNYKTTPPVLVSDGSFTLYSKLTVDKSRWQQGNVFSCSVMHEALHNHYTQKSLSLSPG
heavy: EVQLVESGGGLVKPGGSLRLSCAASGFTFSSYSMNWVRQAPGKGLEWVSSISSSSSYIYYADSVKGRFTISRDNAKNSLYLQMNSLRAEDTAVYYCARGAPIGAAAGWFDPWGQGTLVTVSSASTKGPSVFPLAPSSKSTSGGTAALGCLVKDYFPEPVTVSWNSGALTSGVHTFPAVLQSSGLYSLSSVVTVPSSSLGTQTYICNVNHKPSNTKVDKKVEPKSCDKTHTCPPCPAPELLGGPSVFLFPPKPKDTLMISRTPEVTCVVVDVSHEDPEVKFNWYVDGVEVHNAKTKPREEQYNSTYRVVSVLTVLHQDWLNGKEYKCKVSNKALPAPIEKTISKAKGQPREPQVCTLPPSRDELTENQVSLTCLVKGFYPSDIAVEWESNGQPENNYKTTPPVLDSDGSFFLYSWLTVDKSRWQQGNVFSCSVMHEALHNHYTQKSLSLSPG
light: DIQMTQSPSSVSASVGDRVTITCRASQGISSWLAWYQQKPGKAPKLLIYAASSLQSGVPSRFSGSGSGTDFTLTISSLQPEDFATYYCQQGVSFPRTFGGGTKVEIKRTVAAPSVFIFPPSDEQLKSGTASVVCLLNNFYPREAKVQWKVDNALQSGNSQESVTEQDSKDSTYSLSSTLTLSKADYEKHKVYACEVTHQGLSSPVTKSFNRGEC
notes: Trispecific F3' format: CLEC12A scFv-Fc paired with NKG2D Fab-Fc; Stressed and control samples of the stability studies are the same molecule; also called AB0237
The Kd is the constant that tells how readily two partners part at equilibrium. As usually defined, the koff is the rate constant with which the complex falls apart. In general, kon refers to the second-order rate constant of association. Consider B1, for which the “EC50 (nM), KHYG-1-CD16aV cytotoxicity assay, PL-21 cells” value with Human CLEC12A-His [1] is 0.12 nM. In addition, in [2], binding was characterised by a dissociation constant (Kd) of 0.21 µM, the koff is 0.0229 s⁻¹ and the kon worked out at 109000 M⁻¹ s⁻¹. In the experiment with mFc-hNKG2D [3], this molecule returned a Kd of 0.684 µM.

B2: AB0192 TriNKET (other)
chain: EVQLVESGGGVVQPGGSLRLSCAASGFTFNAFGMHWVRQAPGKCLEWVAFISSGSTSIYYANTVKGRFTISRDNSKNTLYLQMNSLRAEDTAVYYCARDGYPTGGAMDYWGQGTSVTVSSGGGGSGGGGSGGGGSGGGGSDIQMTQSPSSLSASVGDRVTITCKASQDIYNYLSWFQQKPGKAPKPLIYRANILVSGVPSRFSGSGSGQDYTFTISSLQPEDIATYYCLQFDAFPFTFGCGTKLEIKGSDKTHTCPPCPAPELLGGPSVFLFPPKPKDTLMISRTPEVTCVVVDVSHEDPEVKFNWYVDGVEVHNAKTKPREEQYNSTYRVVSVLTVLHQDWLNGKEYKCKVSNKALPAPIEKTISKAKGQPREPRVYTLPPCRDELTKNQVSLTCLVKGFYPSDIAVEWESNGQPENNYKTTPPVLVSDGSFTLYSKLTVDKSRWQQGNVFSCSVMHEALHNHYTQKSLSLSPG
heavy: EVQLVESGGGLVKPGGSLRLSCAASGFTFSSYSMNWVRQAPGKGLEWVSSISSSSSYIYYADSVKGRFTISRDNAKNSLYLQMNSLRAEDTAVYYCARGAPIGAAAGWFDPWGQGTLVTVSSASTKGPSVFPLAPSSKSTSGGTAALGCLVKDYFPEPVTVSWNSGALTSGVHTFPAVLQSSGLYSLSSVVTVPSSSLGTQTYICNVNHKPSNTKVDKKVEPKSCDKTHTCPPCPAPELLGGPSVFLFPPKPKDTLMISRTPEVTCVVVDVSHEDPEVKFNWYVDGVEVHNAKTKPREEQYNSTYRVVSVLTVLHQDWLNGKEYKCKVSNKALPAPIEKTISKAKGQPREPQVCTLPPSRDELTENQVSLTCLVKGFYPSDIAVEWESNGQPENNYKTTPPVLDSDGSFFLYSWLTVDKSRWQQGNVFSCSVMHEALHNHYTQKSLSLSPG
light: DIQMTQSPSSVSASVGDRVTITCRASQGISSWLAWYQQKPGKAPKLLIYAASSLQSGVPSRFSGSGSGTDFTLTISSLQPEDFATYYCQQGVSFPRTFGGGTKVEIKRTVAAPSVFIFPPSDEQLKSGTASVVCLLNNFYPREAKVQWKVDNALQSGNSQESVTEQDSKDSTYSLSSTLTLSKADYEKHKVYACEVTHQGLSSPVTKSFNRGEC
notes: the condition stands under assay; also called AB0192 Lot AB0192-005
B2: the Kd in the experiment with Human CLEC12A-K244Q-His was determined as 0.00451 µM; with Human CLEC12A-His [4], 0.00168 µM; with mFc-hNKG2D [5] it was 0.588 µM; with Human CD16a V158 it was 0.171 µM. For the same molecule, the off-rate constant (koff) in the experiment with Human CLEC12A-K244Q-His amounted to 0.0037 s⁻¹; in the experiment with Human CLEC12A-His [4] it was 0.00129 s⁻¹; with mFc-hNKG2D [5], 0.122 s⁻¹; with Human CD16a V158, 0.0199 s⁻¹; in the experiment with mFc-hNKG2D [6], 0.146 s⁻¹. The kon was 824000 M⁻¹ s⁻¹ with Human CLEC12A-K244Q-His; 771000 M⁻¹ s⁻¹ in the experiment with Human CLEC12A-His [4]; 208000 M⁻¹ s⁻¹ with mFc-hNKG2D [5]; 117000 M⁻¹ s⁻¹ in the experiment with Human CD16a V158; 188000 M⁻¹ s⁻¹ with mFc-hNKG2D [6].

B3: F3'-1602 TriNKET (other)
chain: QLQLQESGPGLVKPSETLSLTCTVSGFSLTNYGLHWIRQPPGKCLEWIGVIWSGGKTDYNPSLKSRVTISKDTSKNQFSLKLSSVQAADTAVYYCAKYDYDDSLDYWGQGTLVTVSSGGGGSGGGGSGGGGSGGGGSDIQMTQSPSSLSASVGDRVTITCHASQNINFWLSWYQQKPGKAPKLLIYEASNLHTGVPSRFSGSGSGTRFTLTISSLQPEDIATYYCQQSHSYPLTFGCGTKLEIKGSDKTHTCPPCPAPELLGGPSVFLFPPKPKDTLMISRTPEVTCVVVDVSHEDPEVKFNWYVDGVEVHNAKTKPREEQYNSTYRVVSVLTVLHQDWLNGKEYKCKVSNKALPAPIEKTISKAKGQPREPRVYTLPPCRDELTKNQVSLTCLVKGFYPSDIAVEWESNGQPENNYKTTPPVLVSDGSFTLYSKLTVDKSRWQQGNVFSCSVMHEALHNHYTQKSLSLSPG
heavy: EVQLVESGGGLVKPGGSLRLSCAASGFTFSSYSMNWVRQAPGKGLEWVSSISSSSSYIYYADSVKGRFTISRDNAKNSLYLQMNSLRAEDTAVYYCARGAPIGAAAGWFDPWGQGTLVTVSSASTKGPSVFPLAPSSKSTSGGTAALGCLVKDYFPEPVTVSWNSGALTSGVHTFPAVLQSSGLYSLSSVVTVPSSSLGTQTYICNVNHKPSNTKVDKKVEPKSCDKTHTCPPCPAPELLGGPSVFLFPPKPKDTLMISRTPEVTCVVVDVSHEDPEVKFNWYVDGVEVHNAKTKPREEQYNSTYRVVSVLTVLHQDWLNGKEYKCKVSNKALPAPIEKTISKAKGQPREPQVCTLPPSRDELTENQVSLTCLVKGFYPSDIAVEWESNGQPENNYKTTPPVLDSDGSFFLYSWLTVDKSRWQQGNVFSCSVMHEALHNHYTQKSLSLSPG
light: DIQMTQSPSSVSASVGDRVTITCRASQGISSWLAWYQQKPGKAPKLLIYAASSLQSGVPSRFSGSGSGTDFTLTISSLQPEDFATYYCQQGVSFPRTFGGGTKVEIKRTVAAPSVFIFPPSDEQLKSGTASVVCLLNNFYPREAKVQWKVDNALQSGNSQESVTEQDSKDSTYSLSSTLTLSKADYEKHKVYACEVTHQGLSSPVTKSFNRGEC
notes: CLEC12A scFv-Fc, NKG2D A49MI Fab-Fc, human IgG1 Fc; also called AB0237
B3: in the experiment with recombinant human CD64, the Kd was 0.0052 µM and 0.0053 µM; the koff is 0.00027 s⁻¹ and 0.00028 s⁻¹ and 0.00026 s⁻¹; the kon is 53000 M⁻¹ s⁻¹ and 52000 M⁻¹ s⁻¹ and 51000 M⁻¹ s⁻¹. The Kd with recombinant human CD16b was 7.6 µM and 7.2 µM and 8.6 µM and 6.5 µM.
